The target of this assay is T1, mouse C-KIT (SB, Lot #LC05DE2304) (mouse, UniProt P05532 25-523).
T1 chain: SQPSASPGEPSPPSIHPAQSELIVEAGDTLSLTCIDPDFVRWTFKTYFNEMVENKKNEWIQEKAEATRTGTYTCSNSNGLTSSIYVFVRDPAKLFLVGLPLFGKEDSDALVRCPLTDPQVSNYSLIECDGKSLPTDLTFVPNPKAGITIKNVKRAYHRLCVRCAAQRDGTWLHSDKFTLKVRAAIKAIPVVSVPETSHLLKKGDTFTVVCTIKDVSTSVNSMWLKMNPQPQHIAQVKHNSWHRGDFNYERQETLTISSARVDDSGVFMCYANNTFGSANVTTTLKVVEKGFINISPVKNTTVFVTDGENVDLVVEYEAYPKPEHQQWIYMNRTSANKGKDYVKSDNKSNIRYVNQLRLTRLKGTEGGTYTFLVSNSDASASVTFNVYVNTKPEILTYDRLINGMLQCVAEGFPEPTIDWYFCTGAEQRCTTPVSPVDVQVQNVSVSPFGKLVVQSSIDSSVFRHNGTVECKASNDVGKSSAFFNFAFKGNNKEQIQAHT
Nature of the assay: SPR.

B1: 2G4 antibody (antibody, V domains shown)
VH: QVQLVESGGGVVQPGRSLRLSCAASGFTFSRYGMHWVRQAPGKGLEWVAVIWYDGTNKDYTDSVRGRFTISRDNSKNTLYLQMNSLRAEDTAVYYCAREDWAEAFDMWGQGTTVTVSS
VL: not shown
As to B1, the Kd was found to be 11.5 nM.
